Experimental data taken from PMC10303064, “Sulfated Lactosyl Archaeol Archaeosome-Adjuvanted Vaccine Formulations Targeting Rabbit Hemorrhagic Disease Virus Are Immunogenic and Efficacious” (Vaccines, 2023).

Molecular target: the molecule itself
Assay: negative-stain transmission electron microscopy; purified RHDV2 VP60 protein alone adsorbed on glow-discharged formvar/carbon copper grids, stained with 1% uranyl acetate, imaged at 300 keV

B1: RHDV2 VP60 capsid protein (natural protein)
chain: EGKARAAPQGETAGTATTASVPGTTTDGMDPGVVATTSVVTTENASTSIATAGIGGPPQQVDQQETWRTNFYYNDVFTWSVADAPGNILYTVQHSPQNNPFTAVLSQMYAGWAGGMQFRFIVAGSGVFGGRLVAAVIPPGIEIGPGLEVRQFPHVVIDARSLEPVTITMPDLRPNMYHPTGNPGLVPTLVLSVYNNLINPFGGSTSAIQVTVETRPSEDFEFVMIRAPSSKTVDSISPADLLTTPVLTGVGTDNRWNGEIVGLQPVPGGFSTCNRHWNLNGSTFGWSSPRFAAIDHDGGNASFPGSSSSNVLELWYASAGSATDNPISQIAPDGFPDMSFVPFSGSTIPTAGWVGFGGIWNSNNGAPFVTTMQAYELGFATGAPSNPQPTTTTSGAQIVAKSIYGVANGINQTTAGLFVMASGVISTPNSSAITYTPQPNRIVNAPGTPAAAPIGKNTPIMFASVVRRTGDINAEAGSTNGTQYGAGSQPLPVTVGLSLNNYSSALMPGQFFVWQLNFASGFMELGLSVDGYFYAGTGALATLIDLSELVDIRPVGPRPSTSTLVYNLGGTTNGFSYV
notes: VP60 capsid protein of rabbit hemorrhagic disease virus 2 (RHDV2); the tag was removed after purification; After TEV cleavage a single G of the ENLYFQG site probably stays in front of E2 (surmised); Self-assembles into virus-like particles of ~30 nm; also called RHDV2 VLP; RHDV2 capsid protein; source: Baculovirus expression system (GenScript), purified, tag removed; not shown: His6, N-terminal, …
binding result: binds
